We go through 2 molecules from patent WO2013190679A1 (dated 2013).

In assay [1] the target is T1, BSA (negative control, Sigma) (UniProt P02769 25-607). As to the kind of experiment: ELISA, BSA immobilised, HRP anti-V5 tag.
Assay [2] addresses T2, recombinant human LOX-1 protein (61-273aa) (human, UniProt P78380 61-273). Kind of assay: ELISA on immobilised LOX-1; protein concentration at the inflection point of a 4-parameter logistic fit.
The target of assay [3] is T2, recombinant human LOX-1 protein …. As to the kind of experiment: ELISA, LOX-1 (61-273aa) immobilised, HRP anti-mouse IgG.
Assay [4] has as its target T1, BSA (negative control, Sigma). As to the kind of experiment: ELISA, BSA immobilised, HRP anti-mouse IgG.

T1 sequence (P02769 25-607 limits assumed): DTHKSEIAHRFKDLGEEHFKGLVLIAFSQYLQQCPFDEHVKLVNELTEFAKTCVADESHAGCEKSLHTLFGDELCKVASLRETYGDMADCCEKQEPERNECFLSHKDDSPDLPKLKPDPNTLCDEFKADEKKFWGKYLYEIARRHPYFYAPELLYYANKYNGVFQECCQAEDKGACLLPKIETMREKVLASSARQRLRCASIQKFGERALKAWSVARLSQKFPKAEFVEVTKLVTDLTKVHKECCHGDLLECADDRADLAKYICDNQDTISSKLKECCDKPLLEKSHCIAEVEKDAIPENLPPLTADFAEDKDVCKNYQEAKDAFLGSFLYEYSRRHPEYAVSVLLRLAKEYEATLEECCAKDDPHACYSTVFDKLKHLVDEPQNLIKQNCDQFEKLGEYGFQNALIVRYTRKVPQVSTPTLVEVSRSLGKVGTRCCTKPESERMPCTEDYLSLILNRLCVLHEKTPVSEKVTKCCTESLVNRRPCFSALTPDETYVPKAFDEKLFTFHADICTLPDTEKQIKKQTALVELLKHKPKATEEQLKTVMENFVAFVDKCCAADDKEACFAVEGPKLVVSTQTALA

B1: Fv-type anti-LOX-1 antibody (scFv)
scFv: EVKLLESGGGLVQPGGSLKLSCAVSGFDFSRYWMSWVRQAPGKGLEWIGEINPDSSTINFTPSLKDKFIVSRDNAKNTLYLQMSKVRSEDTALYYCARNDVLLGAMDYWGQGTSVTVSSGGGGSGGGGSGGGGSDVLMTQTPLSLPVSLGDQASISCRSSQTIVHSNGKTYLEWYLQKPGQSPKLLIYKVSNRFSGVPDRFSGSGSGTDFTLKISRVEAEDLGVYYCFQGSHVPLTFGAGTKLELK
notes: The VH gene was amplified with the #10-1 heavy chain secretion signal; Expressed in FreeStyle 293 and purified by the His tag; also called Fv type antibody; Fv-type antibody; not shown: C-terminal V5 and 6xHis tag from the pEF6/V5/His vector
With B1, the binding result in assay [1] was “no binding”. In addition, the concentration for a half-maximal effect (EC50) in assay [2] turned out to be 2.91 mg/L.

B2: mouse anti-LOX-1 monoclonal antibody #10-1 (antibody, V domains shown)
VH: EVKLLESGGGLVQPGGSLKLSCAVSGFDFSRYWMSWVRQAPGKGLEWIGEINPDSSTINFTPSLKDKFIVSRDNAKNTLYLQMSKVRSEDTALYYCARNDVLLGAMDYWGQGTSVTVSS
VL: DVLMTQTPLSLPVSLGDQASISCRSSQTIVHSNGKTYLEWYLQKPGQSPKLLIYKVSNRFSGVPDRFSGSGSGTDFTLKISRVEAEDLGVYYCFQGSHVPLTFGAGTKLELK
notes: Whole mouse IgG1, kappa from the hybridoma; also called anti-LOX-1 antibody #10-1; IgG type of mouse anti-LOX-1 antibody #10-1
For B2, the binding result in assay [3] was “binds”; in assay [4], “no binding”.
